For test [1], the target named is in vitro translated 35S-labelled Ehmeth, full length (TNT-Ehmeth) (E. histolytica).
Test [2] concerns the target calmodulin, histidine, hemagglutin (CHH)-tagged-Ehmeth (E. histolytica). Put plainly: co-IP; anti-HA immunoprecipitation from nuclear lysate of E. histolytica trophozoites expressing a CHH-tagged protein, HNTG buffer (20 mM Hepes pH 7.5, 150 mM NaCl, 0.1% Triton, 10% glycerol), 4°C; blot with anti-enolase; trophozoites grown in regular medium or starved of glucose for 12 hours.

B1: GST-Ehenolase (enzyme)
chain: MSIQKVHAREILDSRGNPTIEVEITTGKGMFRSCVPSGASTGVHEAVELRDGDKKRYGGKGVLKAVENVNTIIGPALLGKNVLNQAELDEMMIKLDGTNNKGKLGANAILGCSMSICRAAAAEKGLPLYKYLAELTGHKEMTMPVPCFNVINGGAHAGNALAMQEFMICPTGATNFHEALRMAAETYQCLKVVIKAKYGQDATNVGDEGGFAPNVSGAREALDLLVEAIAKAGYTGKIEIAMDCAASEFYNEETKKYDLGKKIPADKKDPSLVKDVDGLIAEYVDYGKHYPIASIEDPFAEDDWAAWNKFTVEHGNFQIVGDDLLVTNPARVQMAMDKNACNSVLIKVNQIGTLTETFKTIKMAQEKGWGVMASHRSGETEDTFIADLVVGLNCKQIKTGAPCRSERLCKYNQLMRIEEELGNIPYAGKNWRNSTA
Regarding B1, the inhibition of the tRNA^Asp methyltransferase activity of recombinant Ehmeth (0.4 nmol) by GST-Enolase (2 nmol) in test [1] turned out to be 60 % inhibition.

B2: endogenous enolase of E. histolytica trophozoites (enzyme)
chain: B1 chain
B2: the fold more complex after glucose starvation than in regular medium in test [2] is 3 fold.

The values are drawn from publication PMC2824750.
